Results as given in patent US20060067886A1, “Gastrin receptor-avid peptide conjugates” (priority 1997, published 2006).

Test: Biodistribution of radiometal-DOTA-BBN conjugates in CF1 normal mice
Conditions: 1 hour post-injection
With `CSCC[C@H](NC(=O)[C@H](CC(C)C)NC(=O)[C@H](Cc1c[nH]cn1)NC(=O)CNC(=O)[C@@H](NC(=O)[C@H](C)NC(=O)[C@H](Cc1c[nH]c2ccccc12)NC(=O)[C@H](CCC(N)=O)NC(=O)CCCCNC(=O)CN1CCN(CC(=O)O)CCN(CC(=O)O)CCN(CC(=O)O)CC1)C(C)C)C(N)=O` [149Pm-DOTA-5-Ava-BBN[7-14]NH2] the “Avg % ID, Blood” value was 0.47 ± 0.11 % ID, the “Avg % ID, Carcass” value was 6.16 ± 0.75 % ID and the “Avg % ID, Heart” value was 0.06 ± 0.09 % ID. The “Avg % ID, Kidney” value was 1.11 ± 0.29 % ID, the “Avg % ID, L. Intestine” value was 3.18 ± 1.18 % ID and the “Avg % ID, Liver” value was 0.37 ± 0.20 % ID. The “Avg % ID, Lung” value was 0.17 ± 0.21 % ID, the “Avg % ID, Muscle” value was 0.03 ± 0.04 % ID and the “Avg % ID, Pancreas” value was 4.25 ± 0.43 % ID. For the same molecule, the “Avg % ID, S. Intestine” value was 7.70 ± 0.66 % ID, the “Avg % ID, Spleen” value was 0.27 ± 0.13 % ID and the “Avg % ID, Stomach” value was 0.77 ± 0.74 % ID. For the same molecule, the “Avg % ID/gm, Blood” value was 0.27 ± 0.06 % ID/gm, the “Avg % ID/gm, Heart” value was 0.42 ± 0.59 % ID/gm and the “Avg % ID/gm, Kidney” value was 2.81 ± 0.66 % ID/gm. The “Avg % ID/gm, L. Intestine” value was 3.53 ± 1.10 % ID/gm, the “Avg % ID/gm, Liver” value was 0.23 ± 0.13 % ID/gm and the “Avg % ID/gm, Lung” value was 0.78 ± 1.08 % ID/gm. For the same molecule, the “Avg % ID/gm, Muscle” value was 0.24 ± 0.25 % ID/gm, the “Avg % ID/gm, Pancreas” value was 22.1 ± 5.40 % ID/gm and the “Avg % ID/gm, S. Intestine” value was 5.15 ± 1.20 % ID/gm. For the same molecule, the “Avg % ID/gm, Spleen” value was 2.37 ± 1.36 % ID/gm and the “Avg % ID/gm, Stomach” value was 1.90 ± 1.60 % ID/gm. With `CSCC[C@H](NC(=O)[C@H](CC(C)C)NC(=O)[C@H](Cc1cnc[nH]1)NC(=O)CNC(=O)[C@@H](NC(=O)[C@H](C)NC(=O)[C@H](Cc1c[nH]c2ccccc12)NC(=O)[C@H](CCC(N)=O)NC(=O)CCCCCCCNC(=O)CN1CCN(CC(=O)O)CCN(CC(=O)O)CCN(CC(=O)O)CC1)C(C)C)C(N)=O` [149Pm-DOTA-8-Aoc-BBN[7-14]NH2] the “Avg % ID, Blood” value was 0.23 ± 0.26 % ID, the “Avg % ID, Carcass” value was 10.30 ± 1.84 % ID and the “Avg % ID, Heart” value was 0.00 ± 0.01 % ID. For the same molecule, the “Avg % ID, Kidney” value was 1.55 ± 0.47 % ID, the “Avg % ID, L. Intestine” value was 4.43 ± 2.37 % ID and the “Avg % ID, Lung” value was 0.02 ± 0.04 % ID. For the same molecule, the “Avg % ID, Muscle” value was 0.01 ± 0.02 % ID, the “Avg % ID, Pancreas” value was 7.34 ± 3.51 % ID and the “Avg % ID, S. Intestine” value was 7.84 ± 2.15 % ID. The “Avg % ID, Spleen” value was 0.24 ± 0.06 % ID, the “Avg % ID, Stomach” value was 0.66 ± 0.35 % ID and the “Avg % ID/gm, Blood” value was 0.12 ± 0.13 % ID/gm. The “Avg % ID/gm, L. Intestine” value was 4.14 ± 2.14 % ID/gm, the “Avg % ID/gm, Liver” value was 0.19 ± 0.12 % ID/gm and the “Avg % ID/gm, Lung” value was 0.09 ± 0.14 % ID/gm. For the same molecule, the “Avg % ID/gm, Muscle” value was 0.09 ± 0.21 % ID/gm, the “Avg % ID/gm, Pancreas” value was 28.29 ± 13.26 % ID/gm and the “Avg % ID/gm, S. Intestine” value was 12.56 ± 16.70 % ID/gm. With `CSCC[C@H](NC(=O)[C@H](CC(C)C)NC(=O)[C@H](Cc1cnc[nH]1)NC(=O)CNC(=O)[C@@H](NC(=O)[C@H](C)NC(=O)[C@H](Cc1c[nH]c2ccccc12)NC(=O)[C@H](CCC(N)=O)NC(=O)CCNC(=O)CN1CCN(CC(=O)O)CCN(CC(=O)O)CCN(CC(=O)O)CC1)C(C)C)C(N)=O` [149Pm-DOTA-β-Ala-BBN[7-14]NH2] the “Avg % ID, Blood” value was 0.30 ± 0.32 % ID, the “Avg % ID, Carcass” value was 1.64 ± 0.38 % ID and the “Avg % ID, Heart” value was 0.02 ± 0.02 % ID. The “Avg % ID, Kidney” value was 0.61 ± 0.41 % ID, the “Avg % ID, L. Intestine” value was 0.31 ± 0.06 % ID and the “Avg % ID, Liver” value was 0.23 ± 0.07 % ID. For the same molecule, the “Avg % ID, Lung” value was 0.06 ± 0.04 % ID, the “Avg % ID, Muscle” value was 0.00 ± 0.01 % ID and the “Avg % ID, Pancreas” value was 0.46 ± 0.23 % ID. The “Avg % ID, S. Intestine” value was 0.95 ± 0.19 % ID, the “Avg % ID, Spleen” value was 0.02 ± 0.04 % ID and the “Avg % ID, Stomach” value was 0.10 ± 0.03 % ID. For the same molecule, the “Avg % ID/gm, Blood” value was 0.21 ± 0.22 % ID/gm, the “Avg % ID/gm, Heart” value was 0.17 ± 0.24 % ID/gm and the “Avg % ID/gm, Kidney” value was 2.05 ± 1.63 % ID/gm. For the same molecule, the “Avg % ID/gm, L. Intestine” value was 0.42 ± 0.08 % ID/gm, the “Avg % ID/gm, Liver” value was 0.15 ± 0.05 % ID/gm and the “Avg % ID/gm, Lung” value was 0.34 ± 0.30 % ID/gm. The “Avg % ID/gm, Muscle” value was 0.04 ± 0.10 % ID/gm, the “Avg % ID/gm, Pancreas” value was 2.40 ± 1.33 % ID/gm and the “Avg % ID/gm, S. Intestine” value was 0.63 ± 0.20 % ID/gm. For the same molecule, the “Avg % ID/gm, Spleen” value was 0.16 ± 0.31 % ID/gm and the “Avg % ID/gm, Stomach” value was 0.19 ± 0.11 % ID/gm. With `CSCC[C@H](NC(=O)[C@H](CC(C)C)NC(=O)[C@H](Cc1cnc[nH]1)NC(=O)CNC(=O)[C@@H](NC(=O)[C@H](C)NC(=O)[C@H](Cc1c[nH]c2ccccc12)NC(=O)[C@H](CCC(N)=O)NC(=O)CN1CCN(CC(=O)O)CCN(CC(=O)O)CCN(CC(=O)O)CC1)C(C)C)C(N)=O` [177Lu-DOTA-0-BBN[7-14]NH2] [metal not drawn] the “Avg % ID, Blood” value was 0.39 ± 0.34 % ID, the “Avg % ID, Carcass” value was 4.34 ± 2.64 % ID and the “Avg % ID, Heart” value was 0.01 ± 0.02 % ID. For the same molecule, the “Avg % ID, Kidney” value was 0.58 ± 0.10 % ID, the “Avg % ID, L. Intestine” value was 0.09 ± 0.12 % ID and the “Avg % ID, Liver” value was 0.19 ± 0.10 % ID. For the same molecule, the “Avg % ID, Lung” value was 0.04 ± 0.06 % ID, the “Avg % ID, Muscle” value was 0.02 ± 0.03 % ID and the “Avg % ID, Pancreas” value was 0.06 ± 0.10 % ID. The “Avg % ID, S. Intestine” value was 1.27 ± 1.03 % ID, the “Avg % ID, Spleen” value was 0.01 ± 0.01 % ID and the “Avg % ID, Stomach” value was 0.05 ± 0.11 % ID. For the same molecule, the “Avg % ID/gm, Blood” value was 0.58 ± 0.96 % ID/gm, the “Avg % ID/gm, Heart” value was 0.04 ± 0.09 % ID/gm and the “Avg % ID/gm, Kidney” value was 1.21 ± 0.31 % ID/gm. For the same molecule, the “Avg % ID/gm, L. Intestine” value was 0.07 ± 0.09 % ID/gm, the “Avg % ID/gm, Liver” value was 0.09 ± 0.06 % ID/gm and the “Avg % ID/gm, Lung” value was 0.19 ± 0.26 % ID/gm. For the same molecule, the “Avg % ID/gm, Muscle” value was 0.09 ± 0.15 % ID/gm, the “Avg % ID/gm, Pancreas” value was 0.18 ± 0.28 % ID/gm and the “Avg % ID/gm, S. Intestine” value was 0.75 ± 0.60 % ID/gm. For the same molecule, the “Avg % ID/gm, Spleen” value was 0.04 ± 0.09 % ID/gm and the “Avg % ID/gm, Stomach” value was 0.10 ± 0.21 % ID/gm.
